The target in assay [1] is Abeta 1-40 (human). In words: SPR. In general terms: Surface plasmon resonance follows binding to a sensor surface in real time, without labels.
For assay [2], the target named is Abeta 1-40 (human).
The target in a further assay is beta-APP (human). In words: ELISA.
In assay [3] the target is Abeta 1-40 (human). The source holds these as a separate data set.

For orientation: Kd means the equilibrium constant for the complex coming apart.

Read-outs that look alike come from different tables or passages of the source.

Abeta 1-40 (human), sequence (P05067 672-711): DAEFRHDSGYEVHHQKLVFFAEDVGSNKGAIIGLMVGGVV
beta-APP (human), sequence (chain, as listed by the source): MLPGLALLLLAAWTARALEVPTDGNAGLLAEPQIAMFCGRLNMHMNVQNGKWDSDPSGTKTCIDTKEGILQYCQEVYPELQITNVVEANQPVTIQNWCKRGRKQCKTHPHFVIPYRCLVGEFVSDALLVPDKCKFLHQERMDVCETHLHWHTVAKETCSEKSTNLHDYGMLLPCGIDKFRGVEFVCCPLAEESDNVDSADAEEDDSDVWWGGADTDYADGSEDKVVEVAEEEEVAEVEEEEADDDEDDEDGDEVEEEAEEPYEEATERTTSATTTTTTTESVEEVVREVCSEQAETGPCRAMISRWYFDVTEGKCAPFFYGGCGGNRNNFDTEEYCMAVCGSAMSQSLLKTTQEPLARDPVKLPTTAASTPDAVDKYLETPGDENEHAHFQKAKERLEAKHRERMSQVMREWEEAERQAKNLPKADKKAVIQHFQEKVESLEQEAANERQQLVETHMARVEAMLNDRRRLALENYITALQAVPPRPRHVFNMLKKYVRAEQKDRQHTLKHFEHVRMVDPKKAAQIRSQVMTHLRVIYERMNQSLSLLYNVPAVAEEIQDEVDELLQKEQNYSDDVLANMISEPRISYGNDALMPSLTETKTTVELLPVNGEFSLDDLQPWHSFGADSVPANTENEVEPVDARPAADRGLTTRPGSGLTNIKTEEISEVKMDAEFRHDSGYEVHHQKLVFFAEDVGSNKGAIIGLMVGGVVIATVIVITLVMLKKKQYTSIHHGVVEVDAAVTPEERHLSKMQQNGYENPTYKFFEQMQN

B1: Mouse 2286 Fab (antibody, V domains shown)
VH: EVKLLESGGGLVQPGGSLKLSCAASGFDFSRYWMNWVRQAPGKGLEWIGEINPDSSTINYTPSLKDKFIISRDNAKNTLYLQMSKVRSEDTALYYCARQMGYWGQGTTLTVSS
VL: DIQMTQTTSSLSASLGDRVTISCSASQGISNYLNWFQQKPDGTVKLLIYYTSSLHSGVPSRFSGSGSGTDYSLTISNLEPEDIATYYCQQYRKLPYTFGGGTKLEIKR
B1: the dissociation constant (Kd) with Abeta 1-40 [1] amounted to 76 nM.

B2: 2286 (8A1.2A1) (antibody, V domains shown)
VH: EVKLLESGGGLVQPGGSLKLSCAASGFDFSRYWMNWVRQAPGKGLEWIGEINPDSSTINYTPSLKDKFIISRDNAKNTLYLQMSKVRSEDTALYYCARQMGYWGQGTTLTVSS
VL: DIQMTQTTSSLSASLGDRVTISCSASQGISNYLNWFQQKPDGTVKLLIYYTSSLHSGVPSRFSGSGSGTDYSLTISNLEPEDIATYYCQQYRKLPYTFGGGTKLEIKR
B2 returned a Kd with Abeta 1-40 [2] of 2.7 nM. The binding result in the assay with beta-APP is “no binding”.

B3: Humanized 2286 Fab (O8; VH3) (antibody, V domains shown)
VH: EVQLVESGGGLVQPGGSLRLSCAASYWMNWVRQAPGKGLEWVSEINPDSSTINYTPSLKDRFTISRDNAKNTLYLQMNSLRAEDTAVYYCARQMGYWGQGTTLTVSS
VL: DIQMTQSPSSLSASVGDRVTITCSASQGISNYLNWYQQKPGKAPKLLIYYTSSLHSGVPSRFSGSGSGTDFTFTISSLQPEDIATYYCQQYRKLPYTFGGGTKVEIKR
In the case of B3, binding with Abeta 1-40 [1] was characterised by a dissociation constant (Kd) of 500 nM.

B4: Humanized 2286 Fab (O8; VH4) (antibody, V domains shown)
VH: QVQLQESGPGLVKPSETLSLTCTVSYWMNWIRQPPGKGLEWIGEINPDSSTINYTPSLKDRVTISKDTSKNQFSLKLSSVTAADTAVYYCARQMGYWGQGTLVTVSS
VL: DIQMTQSPSSLSASVGDRVTITCSASQGISNYLNWYQQKPGKAPKLLIYYTSSLHSGVPSRFSGSGSGTDFTFTISSLQPEDIATYYCQQYRKLPYTFGGGTKVEIKR
On to B4, for which binding with Abeta 1-40 [1] was put at a Kd of 500 nM.

B5: 2324 (10B10.2E6) (antibody, V domains shown)
VH: VTLKESGPGILKPSQTLSLTCSFSGFSLSTSGMGVGWIRQSSGKGLEWLAHIWWDDDKYYNPSLKSQLTISKDTSRNQVFLKITSVDTADTATYYCARRGVRHRDYFDYWGQGTTLTVSS
VL: DVLMTQTPLSLPVSLGDQASISCRSSQSIVHSNGNTYLEWYLQKPGQSPKLLIYKVSNRFSGVPDRFSGSGSGTDFTLKISRVEAEDLGVYYCFQGSRVPLTFGAGTKLELKR
Consider B5, for which the dissociation constant Kd in the assay with Abeta 1-40 [3] is 0.9 nM. For the same molecule, the binding result in the assay with beta-APP is “no binding”.

These data come from patent US20110038861 (published 2011).
